The results in this text go back to patent US20100150931A1 (CENTRE HOSPITALIER DE L UNIVERSITE DE MONTREAL, published 2010).

The target of assay [1] is T1, CD40 on BJAB B cells (human, UniProt P25942 21-277).
T1 construct: whole, on cells; also called CD40-positive human BJAB B cell line
In words: flow cytometry, competition with sCD40L-Alexa on BJAB cells.

Assay [2] has as its target T2, α5β1 integrin on cells (U937 and other CD40-negative cell lines) (human, UniProt P08648 42-1049; P05556 21-798).
T2 construct: whole, on cells; U937 cells are CD40-negative; also called VLA-5; CD49e/CD29
Nature of the assay: flow cytometry, competition with sCD40L-Alexa on U937 cells.

For assay [3], the target named is T2, α5β1 integrin on cells (U937 and other …). Nature of the assay: cell-based or functional assay.

T2 sequence (P08648 42-1049, chain 1 of 2): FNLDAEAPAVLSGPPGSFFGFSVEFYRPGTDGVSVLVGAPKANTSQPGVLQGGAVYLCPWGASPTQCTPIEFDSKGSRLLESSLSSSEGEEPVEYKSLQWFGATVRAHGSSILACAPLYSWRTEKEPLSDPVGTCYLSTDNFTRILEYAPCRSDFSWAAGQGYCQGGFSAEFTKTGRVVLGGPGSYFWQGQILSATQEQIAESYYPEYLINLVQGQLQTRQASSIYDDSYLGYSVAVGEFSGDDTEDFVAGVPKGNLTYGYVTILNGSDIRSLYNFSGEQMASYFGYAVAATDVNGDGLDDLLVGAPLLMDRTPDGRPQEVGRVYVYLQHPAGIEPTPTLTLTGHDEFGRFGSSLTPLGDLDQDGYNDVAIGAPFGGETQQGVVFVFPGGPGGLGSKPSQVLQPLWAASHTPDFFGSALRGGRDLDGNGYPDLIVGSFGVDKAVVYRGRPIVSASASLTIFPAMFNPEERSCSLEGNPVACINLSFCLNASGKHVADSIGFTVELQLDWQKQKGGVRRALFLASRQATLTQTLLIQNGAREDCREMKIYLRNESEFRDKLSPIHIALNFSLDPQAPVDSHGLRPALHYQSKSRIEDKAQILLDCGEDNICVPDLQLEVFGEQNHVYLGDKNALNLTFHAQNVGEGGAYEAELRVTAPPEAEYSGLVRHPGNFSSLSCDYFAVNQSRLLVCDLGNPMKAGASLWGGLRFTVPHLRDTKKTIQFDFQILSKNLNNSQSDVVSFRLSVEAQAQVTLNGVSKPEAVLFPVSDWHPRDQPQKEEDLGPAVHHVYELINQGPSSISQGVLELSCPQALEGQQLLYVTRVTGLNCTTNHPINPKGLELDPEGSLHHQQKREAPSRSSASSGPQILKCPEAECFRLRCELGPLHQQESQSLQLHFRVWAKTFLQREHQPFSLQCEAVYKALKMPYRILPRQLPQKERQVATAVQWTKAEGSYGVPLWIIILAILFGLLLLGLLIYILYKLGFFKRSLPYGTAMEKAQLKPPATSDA
T2 sequence (P05556 21-798, chain 2 of 2): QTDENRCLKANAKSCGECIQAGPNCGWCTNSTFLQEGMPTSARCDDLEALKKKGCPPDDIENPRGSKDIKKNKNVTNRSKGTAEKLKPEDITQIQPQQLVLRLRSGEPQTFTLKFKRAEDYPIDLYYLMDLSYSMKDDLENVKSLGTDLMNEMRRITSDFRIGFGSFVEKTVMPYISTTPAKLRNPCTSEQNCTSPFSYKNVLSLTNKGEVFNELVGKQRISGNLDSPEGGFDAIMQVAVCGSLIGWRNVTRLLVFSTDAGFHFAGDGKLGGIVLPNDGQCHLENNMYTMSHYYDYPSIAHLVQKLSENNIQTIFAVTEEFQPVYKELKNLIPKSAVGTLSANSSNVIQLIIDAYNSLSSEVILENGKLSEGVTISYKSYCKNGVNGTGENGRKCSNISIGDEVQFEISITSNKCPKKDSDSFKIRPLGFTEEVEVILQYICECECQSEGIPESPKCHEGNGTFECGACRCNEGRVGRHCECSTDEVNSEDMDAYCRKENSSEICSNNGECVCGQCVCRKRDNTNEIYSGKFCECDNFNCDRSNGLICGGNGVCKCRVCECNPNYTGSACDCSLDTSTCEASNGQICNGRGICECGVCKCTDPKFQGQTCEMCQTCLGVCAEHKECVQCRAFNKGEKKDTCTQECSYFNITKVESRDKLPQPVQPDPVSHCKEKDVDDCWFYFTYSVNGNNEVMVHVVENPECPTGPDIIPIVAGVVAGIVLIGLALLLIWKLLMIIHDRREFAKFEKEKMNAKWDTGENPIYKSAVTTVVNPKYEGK
T1 sequence (P25942 21-277): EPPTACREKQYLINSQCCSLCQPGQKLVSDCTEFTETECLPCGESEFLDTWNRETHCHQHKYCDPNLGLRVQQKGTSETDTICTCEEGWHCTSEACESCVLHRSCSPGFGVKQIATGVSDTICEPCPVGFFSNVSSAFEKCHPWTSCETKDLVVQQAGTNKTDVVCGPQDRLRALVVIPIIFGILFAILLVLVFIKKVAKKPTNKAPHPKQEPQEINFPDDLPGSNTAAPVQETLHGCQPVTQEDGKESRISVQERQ

B1: CD40L Y170A (monomeric soluble human CD40L mutant) (ligand)
chain: MQKGDQNPQIAAHVISEASSKTTSVLQWAEKGYYTMSNNLVTLENGKQLTVKRQGLYAIYAQVTFCSNREASSQAPFIASLCLKSPGRFERILLRAANTHSSAKPCGQQSIHLGGVFELQPGASVFVNVTDPSQVSHGTGFTSFGLLKL
notes: Made in Drosophila S2 cells from the soluble human CD40L construct M113 to L261 with Y170 changed to alanine; Numbering of Y170 is that of full-length human CD40L; also called hsCD40LY170A; hCD40L mutated in its Y170 residue; not shown: C-terminal V5 / hexahistidine tag from the pMT-BiP/V5-His A vector
Take B1: the binding result in assay [1] and in assay [2] was “binds” each time.

B2: CD40L G227A (monomeric soluble human CD40L mutant) (ligand)
chain: MQKGDQNPQIAAHVISEASSKTTSVLQWAEKGYYTMSNNLVTLENGKQLTVKRQGLYYIYAQVTFCSNREASSQAPFIASLCLKSPGRFERILLRAANTHSSAKPCGQQSIHLGAVFELQPGASVFVNVTDPSQVSHGTGFTSFGLLKL
notes: Made in Drosophila S2 cells from the soluble human CD40L construct M113 to L261 with G227 changed to alanine; also called hCD40L mutated in its G227 residue; not shown: C-terminal V5 / hexahistidine tag from the pMT-BiP/V5-His A vector
Consider B2, for which the binding result in assay [1] and in assay [2] was “binds” each time.

B3: Recombinant trimeric soluble CD40L (ligand, UniProt P29965 51-261, looked up)
chain: DKIEDERNLHEDFVFMKTIQRCNTGERSLSLLNCEEIKSQFEGFVKDIMLNKEETKKENSFEMQKGDQNPQIAAHVISEASSKTTSVLQWAEKGYYTMSNNLVTLENGKQLTVKRQGLYYIYAQVTFCSNREASSQAPFIASLCLKSPGRFERILLRAANTHSSAKPCGQQSIHLGGVFELQPGASVFVNVTDPSQVSHGTGFTSFGLLKL
modifications: Alexa Fluor-488 label in the form called rsCD40L-A; unlabelled in the solid phase assay and in cell stimulation
As to B3, the “IL-8 mRNA expression (RT-PCR, U937 cells)” value in assay [3] was 2.5 fold increase.
